Results on 4 molecules are retold here after patent US20130101602A1 (ARGOS THERAPEUTICS, published 2013).

One may read the Kd as the equilibrium constant for the complex coming apart. The koff is a measure of how fast the partners let go of each other. As usually defined, the kon is the rate constant with which the complex forms.

Assay [1] addresses T1, recombinant human IFN-αF (human, UniProt P01568 24-189). The experiment in a line: cell-based or functional assay.
Assay [2] deals with T2, recombinant human IFN-αG (human, UniProt P01569 24-189). In words: cell-based or functional assay.
The target of assay [3] is T3, recombinant human IFN-αJ1 (human, UniProt P01567 24-189). In words: cell-based or functional assay.
The target in assay [4] is T4, recombinant human IFN-α1 (human, UniProt P0DY56 24-189).
T4 construct: both come from gene 1; also called hIFN-α1; subtype 1 (Ala114)
The experiment in a line: SPR (Biacore), mAb immobilised, IFN-α injected. In general terms: In SPR one partner is held on a chip, and binding of the other changes the refractive index at the surface.
Description: (§1) The purified monoclonal antibodies were immobilized in individual flow cells on a CM5 type sensor chip. Immobilizations were performed using a standard amine coupling procedure, aiming for an immobilization level of 1000 Resonance Units (RU).
(§2) HBS-EP pH 7.4 (10 mM HEPES, 150 mM NaCl, 3 mM EDTA and 0.005% Polysorbate P20) was used as running buffer, and diluent for the recombinant IFN-α's. Association (injection) was 4 min., followed by a 12 to 30 min. dissociation period. Flow rate was 50 μl/min. Experiments were performed at 25° C. Detection in all flow cells simultaneously. Flow cell #1 contained no immobilized antibody, and was used for subtraction of background and bulk.
(§3) Data was inspected for mass-transport limitations prior to calculation of the kinetic parameters.

The target of assay [5] is T5, recombinant human IFN-αH2 (human, UniProt P01570 24-189).
T5 construct: also called hIFN-αH2
In words: SPR (Biacore), mAb amine-coupled on CM5 chip, IFN-α injected, 1:1 Langmuir fit.
Description: as §1, §2, §3

The target in assay [6] is T6, recombinant human IFN-αK (human, UniProt P05013 24-189).
T6 construct: also called hIFN-αK
Described as above.
Description: as §1, §2, §3

Assay [7] deals with T2, recombinant human IFN-αG. The description is as above.
Description: as §1, §2, §3
Assay [8] concerns the target T7, recombinant human IFN-αI (human, UniProt P01571 24-189).
T7 construct: also called hIFN-αI
Described as above.
Description: as §1, §2, §3

Assay [9] addresses T3, recombinant human IFN-αJ1. The assay is described as above.
Description: as §1, §2, §3
The target in assay [10] is T8, recombinant human IFN-αWA (human, UniProt P05015 24-189).
T8 construct: also called hIFN-αWA
The assay is described as above.
Description: as §1, §2, §3

In assay [11] the target is T9, recombinant human IFN-αC (human, UniProt P01566 24-189).
T9 construct: also called hIFN-αC
The description is as above.
Description: as §1, §2, §3

In assay [12] the target is T10, recombinant human IFN-α4a (human, UniProt P05014 24-189).
T10 construct: 4a and 4b are allelic forms of IFNA4; also called hIFN-α4a
The assay is described as above.
Description: as §1, §2, §3

The target of assay [13] is T1, recombinant human IFN-αF. In words: cell-based or functional assay. The source holds these as a separate data set.
Assay [14] addresses T2, recombinant human IFN-αG. In words: cell-based or functional assay. The source holds these as a separate data set.
Assay [15] has as its target T9, recombinant human IFN-αC. In words: cell-based or functional assay.
For assay [16], the target named is various IFN-α subtypes (those inhibited in the reporter gene assay of FIG. 5). The experiment in a line: cell-based or functional assay.
For assay [17], the target named is T1, recombinant human IFN-αF. In words: cell-based or functional assay. The source holds these as a separate data set.
Assay [18] has as its target T9, recombinant human IFN-αC. The experiment in a line: cell-based or functional assay. This is another data set of the same source.
Assay [19] has as its target T10, recombinant human IFN-α4a. In words: cell-based or functional assay.
Assay [20] concerns the target recombinant human IFN-αA (human) (UniProt P01563). In words: SPR (Biacore), KD normalised to hzACO-1.
For assay [21] the target is unchanged. The experiment in a line: cell-based or functional assay.
Assay [22] has the same target. The experiment in a line: SPR (Biacore), mAb amine-coupled on CM5 chip, IFN-α injected, 1:1 Langmuir fit.

Positions count from the first letter of the chain named. Numbers in names are those of the source.

T9 sequence (P01566 24-189): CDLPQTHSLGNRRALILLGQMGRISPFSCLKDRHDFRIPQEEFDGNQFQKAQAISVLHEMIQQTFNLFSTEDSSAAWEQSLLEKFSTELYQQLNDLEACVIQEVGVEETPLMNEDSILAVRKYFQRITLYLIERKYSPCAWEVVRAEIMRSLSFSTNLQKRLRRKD
Sequence of recombinant human IFN-αA (human) (P01563 other isoform, or with tags, fused parts or gaps): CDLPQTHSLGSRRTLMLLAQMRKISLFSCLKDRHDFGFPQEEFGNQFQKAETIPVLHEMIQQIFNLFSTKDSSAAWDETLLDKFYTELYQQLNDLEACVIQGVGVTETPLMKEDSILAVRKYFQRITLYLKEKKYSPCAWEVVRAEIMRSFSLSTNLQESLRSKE
T1 sequence (P01568 24-189): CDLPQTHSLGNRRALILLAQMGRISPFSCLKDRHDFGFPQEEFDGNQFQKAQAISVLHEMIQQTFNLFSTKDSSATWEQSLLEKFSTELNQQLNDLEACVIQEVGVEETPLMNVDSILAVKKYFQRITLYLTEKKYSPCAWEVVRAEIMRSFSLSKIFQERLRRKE
T2 sequence (P01569 24-189): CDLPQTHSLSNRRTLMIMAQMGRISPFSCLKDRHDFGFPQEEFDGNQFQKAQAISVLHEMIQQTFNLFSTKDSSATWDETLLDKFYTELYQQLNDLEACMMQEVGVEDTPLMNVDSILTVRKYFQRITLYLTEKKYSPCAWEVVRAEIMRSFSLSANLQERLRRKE
T3 sequence (P01567 24-189 limits assumed): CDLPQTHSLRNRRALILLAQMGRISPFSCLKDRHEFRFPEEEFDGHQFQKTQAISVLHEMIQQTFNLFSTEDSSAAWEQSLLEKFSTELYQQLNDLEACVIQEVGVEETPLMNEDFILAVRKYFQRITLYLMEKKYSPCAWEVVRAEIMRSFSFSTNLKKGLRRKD
T10 sequence (P05014 24-189): as the sequence (P01566 24-189) above, with G19A, P26H, R37G, I38F, Q40E, N46H, I132T, R134K counted along it
T8 sequence (P05015 24-189): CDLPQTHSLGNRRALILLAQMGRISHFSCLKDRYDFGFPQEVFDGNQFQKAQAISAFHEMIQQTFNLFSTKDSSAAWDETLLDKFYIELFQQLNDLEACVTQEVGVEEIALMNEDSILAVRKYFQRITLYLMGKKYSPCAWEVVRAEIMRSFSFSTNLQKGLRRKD
T6 sequence (P05013 24-189): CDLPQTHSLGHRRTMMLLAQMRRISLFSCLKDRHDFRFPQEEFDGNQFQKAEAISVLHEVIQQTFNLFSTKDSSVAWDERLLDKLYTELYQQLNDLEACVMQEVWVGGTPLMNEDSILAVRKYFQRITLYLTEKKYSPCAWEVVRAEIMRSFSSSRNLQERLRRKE
T7 sequence (P01571 24-189): as the sequence (P01566 24-189) above, with G19A, R37G, I38L, A51T, D95N, V106M, I132T, R134K, R161I counted along it
T5 sequence (P01570 24-189): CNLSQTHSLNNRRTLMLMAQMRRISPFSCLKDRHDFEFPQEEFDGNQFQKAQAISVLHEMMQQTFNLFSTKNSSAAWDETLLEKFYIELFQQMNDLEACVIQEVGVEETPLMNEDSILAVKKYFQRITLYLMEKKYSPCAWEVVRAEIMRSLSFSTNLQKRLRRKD
T4 sequence (P0DY56 entry or part of it limits assumed): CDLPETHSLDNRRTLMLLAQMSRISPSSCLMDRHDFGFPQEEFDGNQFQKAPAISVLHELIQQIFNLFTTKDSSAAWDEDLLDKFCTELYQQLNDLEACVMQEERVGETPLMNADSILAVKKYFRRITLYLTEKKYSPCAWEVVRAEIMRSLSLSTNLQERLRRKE

B1: ACO-1 (murine anti-IFN-α antibody, recombinant) (antibody, V domains shown)
VH: QVQLQQPGAELVKPGASVKLSCKASGYTFTNYWMHWVKQRPGQGLEWIGEINPSHGRTIYNENFKSKATLTVDKSSITAFMQLSSLTSEDSAVYFCARGGLGPAWFAYWGQGTLVTVSA
VL: QIVLTQSPAIMSASPGEKVTLTCSAGSSVDSSYLYWYQQKPGSSPKLWIYSTSNLASGVPARFSGSGSGTSYSLTISSMEAEDAASYFCHQWSSYPFTFGSGTKLEIKR
On to B1, for which the “IC50 value relative to hzACO-1 (RG assay)” value was found to be 0.82 in assay [1], 0.56 in assay [2] and 0.58 in assay [3].

B2: hzACO-1 (humanized ACO-1) (antibody, human IgG4, V domains shown)
VH: QVQLVQSGAEVKKPGASVKVSCKASGYTFTNYWMHWVRQAPGQGLEWMGEINPSHGRTIYAQKFQGRVTMTRDTSTSTVYMELSSLRSEDTAVYYCARGGLGPAWFAYWGQGTLVTVSS
VL: EIVLTQSPATLSLSPGERATLSCSAGSSVDSSYLYWYQQKPGQAPRLLIYSTSNLASGIPARFSGSGSGTDFTLTISSLEPEDFAVYYCHQWSSYPFTFGQGTKLEIKR
notes: also called hzACO-1 IgG4; hzACO-1-IgG4
B2: in [4], the binding result is given as “no binding”. For the same molecule, the Kd in assay [5] came out at 3.21 nM; in assay [6] it was 1.44 nM; in [7], 0.92 nM; in assay [8], 2.81 nM; in assay [9], 4.81 nM; in assay [10] it was 4.1 nM. Also, the Kd in assay [11] stood at 1.05 nM; in assay [12] it was 3.45 nM. Moreover, the “IC50 (read off the curve) (reporter gene assay)” value was ~0.3 µg/mL in assay [13], ~0.05 µg/mL in assay [14] and ~0.03 µg/mL in [15]. Further, the IC50, reporter gene (Mx promoter-luciferase) assay in 93D7 cells in [16] was in the range of 0.028 to 0.314 µg/mL. Further, in assay [17], the “IC50 (reporter gene assay, Mx promoter-luciferase in 93D7 cells)” value came out at 0.277 µg/mL. Moreover, the “IC50 (read off the curve) (CPE assay)” value in assay [18] is ~0.008 µg/mL; in assay [19], ~0.06 µg/mL.

B3: hzACO-1-A93V (antibody, human IgG4, name in Kabat numbering, V domains shown)
VH: B2 VH with A97V
VL: B2 VL
In the case of B3, the “IC50 (reporter gene assay, Mx promoter-luciferase in 93D7 cells)” value in assay [17] turned out to be 0.156 µg/mL.

B4: hzACO-1-kabat CDRH2 (antibody, V domains shown)
VH: B2 VH with A61N, Q62E, K63N, Q65K, G66S
VL: EIVLTQSPATLSLSPGERATLSCSAGSSVDSSYLYWYQQKPGQAPRLLIYSTSNLASGIPARFSGSGSGTDFTLTISSLEPEDFAVYYCHQWSSYPFTFGQGTKLEIK
Consider B4, for which the KD mAb/KD hzACO-1 in [20] was 0.9. Further, the IC50 value relative to hzACO-1 (RG assay) in assay [21] was found to be 0.95; in [1], 0.95; in [2] it was 0.78; in [3], 1.15. Besides, in assay [22], the koff was 0.000341 s⁻¹. Moreover, the kon in [22] was determined as 205000 M⁻¹ s⁻¹.
